The text below walks through data of patent US20230151111A1 (AKESO BIOPHARMA, published 2023).

Assay [1] addresses T1, PD-1 on 293T-PD1 cell surface (human, UniProt Q15116 25-288).
T1 construct: whole, on cells
The assay is described as follows: flow cytometry, 293T-PD1 cells; antibody 11.11 nM. The procedure:
(§1) 500 μL of PBSA was added, and the mixture was centrifuged at 5600 rpm for 5 min to remove the supernatant. […] The system was mixed gently and uniformly, and then was incubated on ice for 1 h. Then 500 μL of PBSA was added, and the mixture was centrifuged at 5600 rpm for 5 min to remove the supernatant. […] 500 μL of PBSA was added, and the mixture was centrifuged at 5600 rpm for 5 min to remove the supernatant. At last, 200 μL of PBSA was added to resuspend cell precipitates, and the mixture was transferred to a flow tube for FACSCalibur detection.
Background: Flow cytometry measures light scatter and fluorescence of single cells or particles in a stream.

For assay [2], the target named is T1, PD-1 on 293T-PD1 cell surface. Kind of assay: flow cytometry, 293T-PD1 cells; antibody 0.41 nM. Here is the method:
as §1

The target is the same in assay [3]. Kind of assay: flow cytometry, 293T-PD1 cells; antibody 0.05 nM. Here is the method: as §1
Assay [4] shares this target. Kind of assay: flow cytometry, 293T-PD1 cells; antibody 33.33 nM. Here is the method: as §1
Assay [5] has the same target. Kind of assay: flow cytometry, 293T-PD1 cells; antibody 100.00 nM. Here is the method:
as §1

In another assay the target is T2, human NT5E-Biotin (human, UniProt P21589 27-552, limits assumed, biotin label, site not stated).
T2 construct: Captured on streptavidin-coated plates; also called human NTSE-Biotin
T2 sequence (looked up): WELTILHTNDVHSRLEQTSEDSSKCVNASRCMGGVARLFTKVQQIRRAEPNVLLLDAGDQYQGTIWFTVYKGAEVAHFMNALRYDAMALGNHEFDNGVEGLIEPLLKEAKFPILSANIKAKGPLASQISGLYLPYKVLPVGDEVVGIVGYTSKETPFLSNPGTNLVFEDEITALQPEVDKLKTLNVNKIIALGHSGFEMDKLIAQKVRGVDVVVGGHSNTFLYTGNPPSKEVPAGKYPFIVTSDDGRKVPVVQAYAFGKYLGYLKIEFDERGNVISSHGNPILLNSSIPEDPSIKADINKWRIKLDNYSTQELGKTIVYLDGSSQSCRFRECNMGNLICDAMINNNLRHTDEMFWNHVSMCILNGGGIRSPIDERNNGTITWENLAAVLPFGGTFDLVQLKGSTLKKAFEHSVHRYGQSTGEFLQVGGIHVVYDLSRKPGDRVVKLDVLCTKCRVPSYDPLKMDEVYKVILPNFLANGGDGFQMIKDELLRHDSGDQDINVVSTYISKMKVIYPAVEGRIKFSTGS
The assay is described as follows: ELISA, NT5E-biotin on streptavidin. Here is the method: A microplate was coated with streptavidin at 2 μg/mL and then incubated at 4° C. overnight. After incubation, the microplate coated with streptavidin was washed once with PBST, and blocked with a PBS solution containing 1% BSA as a microplate blocking solution at 37° C. for 2 h. After blocking, the microplate was washed 3 times with PBST. Then, 0.5 μg/mL antigen human NTSE-Biotin was added and incubated at 37° C. for 30 min. Then, the plate was washed 3 times with PBST. The antibodies serially diluted with PBST solution (the dilution gradients for the antibody are shown in Table 3) were added to wells of the microplate. The microplate containing the test antibodies was incubated at 37° C. for 30 min, and then washed 3 times with PBST. […] After incubation, the plate was washed 4 times with PBST, TMB (Neogen, 308177) was added in the dark for chromogenesis for 5 min, and then a stop solution was added to terminate chromogenic reaction. The microplate was put into a microplate reader immediately, and the OD value of each well in the microplate was read at 450 nm. The data were analyzed and processed by SoftMax Pro 6.2.1.
For orientation: An ELISA detects its analyte on a solid surface through an enzyme-linked reagent.

The target in assay [6] is T1, PD-1 on 293T-PD1 cell surface. Kind of assay: flow cytometry, 293T-PD1 cells. Here is the method: as §1
The target is the same in assay [7]. The assay is described as follows: flow cytometry, 293T-PD1 cells; antibody 3.70 nM. The procedure: as §1
Assay [8] has the same target. The assay is described as follows: flow cytometry, 293T-PD1 cells; antibody 0.14 nM. The procedure:
as §1

Assay [9] deals with T3, PD-1-mFc (human, UniProt Q15116 25-170, limits assumed).
T3 construct: also called human PD-1-mFc
T3 sequence (Q15116 other isoform, or with tags, fused parts or gaps limits assumed): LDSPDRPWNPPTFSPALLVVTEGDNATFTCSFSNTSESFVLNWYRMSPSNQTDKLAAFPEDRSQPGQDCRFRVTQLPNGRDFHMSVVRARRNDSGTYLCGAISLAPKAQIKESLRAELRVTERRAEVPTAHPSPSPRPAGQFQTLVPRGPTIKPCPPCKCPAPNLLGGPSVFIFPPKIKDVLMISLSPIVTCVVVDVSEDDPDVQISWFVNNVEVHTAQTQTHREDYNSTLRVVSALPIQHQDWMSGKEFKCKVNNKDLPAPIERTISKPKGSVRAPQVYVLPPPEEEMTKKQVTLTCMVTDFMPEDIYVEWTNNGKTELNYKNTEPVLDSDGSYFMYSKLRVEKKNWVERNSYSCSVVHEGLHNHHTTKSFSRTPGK
The assay is described as follows: ELISA, PD-1-mFc coated; antibody 1 ug/mL diluted 1:27. Here is the method:
(§2) A microplate was coated with PD-1-mFc at 0.5 μg/mL and incubated at 4° C. overnight. Then the microplate coated with antigens was washed once with PBST, and then blocked with a PBS solution containing 1% BSA as blocking solution at 37° C. for 2 h. After blocking, the microplate was washed 3 times with PBST. The microplate containing the test antibodies was incubated at 37° C. for 30 min, and then washed 3 times with PBST. […] After incubation, the plate was washed 4 times with PBST, TMB (Neogen, 308177) was added in the dark for chromogenesis for 5 min, and then a stop solution was added to terminate chromogenic reaction. The microplate was put into a microplate reader immediately, and the OD value of each well in the microplate was read at 450 nm. The data were analyzed and processed by SoftMax Pro 6.2.1,

Assay [10] addresses T3, PD-1-mFc. Kind of assay: ELISA, PD-1-mFc coated. Here is the method: as §2
The target in the next assay is human PD-1-mFc-biotin (human, UniProt Q15116 25-170, limits assumed, biotin label, site not stated). Kind of assay: competitive ELISA, blocking of PD-1-mFc-biotin binding to coated PD-L1-mFc. The procedure:
After incubation, the microplate was blocked with a PBS solution containing 1% BSA at 37° C. for 2 h. After blocking, the plate was washed three times and dried. The antibody was serially diluted to 7 concentrations in a gradient ratio of 1:3 on a dilution plate with 10 μg/mL as the starting concentration, and a blank control was set. […] Then the mixture after reaction was added to the coated microplate, and the microplate was incubated for at 37° C. for 30 min. After incubation, the plate was washed three times with PBST and dried. SA-HRP (KPL, 14-30-00) working solution was added, and the plate was incubated at 37° C. for 30 min. After incubation, the plate was washed four times and patted dry. Then TMB (Neogen, 308177) was added in the dark for chromogenesis for 5 min, and a stop solution was added to terminate chromogenic reaction. Then the microplate was put into a microplate reader immediately, and the OD value of each well in the microplate was read at 450 nm. The data were analyzed and processed by SoftMax Pro 6.2.1.

Assay [11] addresses T1, PD-1 on 293T-PD1 cell surface. Kind of assay: flow cytometry, 293T-PD1 cells; antibody 1.23 nM. Here is the method:
as §1

The target of assay [12] is T4, CD73 on cell membrane surface (MDA-MB-231, U87-MG) (human, UniProt P21589 27-549).
T4 construct: whole, on cells; also called NT5E
T4 sequence (looked up): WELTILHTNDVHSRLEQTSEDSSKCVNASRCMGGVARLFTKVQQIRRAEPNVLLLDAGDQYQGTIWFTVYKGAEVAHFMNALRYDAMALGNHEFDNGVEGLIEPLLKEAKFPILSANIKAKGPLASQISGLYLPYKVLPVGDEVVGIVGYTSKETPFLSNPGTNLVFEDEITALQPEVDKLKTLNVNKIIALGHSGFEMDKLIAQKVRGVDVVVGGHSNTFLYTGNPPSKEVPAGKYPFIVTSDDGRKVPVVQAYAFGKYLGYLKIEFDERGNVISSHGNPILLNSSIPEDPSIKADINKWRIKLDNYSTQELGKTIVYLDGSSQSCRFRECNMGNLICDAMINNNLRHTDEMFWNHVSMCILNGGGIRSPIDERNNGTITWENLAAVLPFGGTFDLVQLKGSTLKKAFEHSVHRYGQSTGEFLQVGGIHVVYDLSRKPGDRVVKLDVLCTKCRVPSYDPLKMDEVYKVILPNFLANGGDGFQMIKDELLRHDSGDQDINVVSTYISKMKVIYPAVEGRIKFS
Kind of assay: flow cytometry, MDA-MB-231 cells; antibody 33.33 nM. The procedure:
(§3) MDA-MB-231 cells in logarithmic phase were digested with conventional trypsin and transferred to a 1.5 mL centrifuge tube at 3×10⁵ cells/tube. 500 μL of PBSA was added, and the mixture was centrifuged at 5600 rpm for 5 min to remove the supernatant. […] The system was mixed gently and uniformly, and then was incubated on ice for 1 h. Then 500 μL of PBSA was added, and the mixture was centrifuged at 5600 rpm for 5 min to remove the supernatant. […] 500 μL of PBSA was added, and the mixture was centrifuged at 5600 rpm for 5 min to remove the supernatant. At last, 200 μL of PBSA was added to resuspend cell precipitates, and the mixture was transferred to a flow tube for FACSCalibur detection.

In assay [13] the target is T4, CD73 on cell membrane surface …. The assay is described as follows: flow cytometry, MDA-MB-231 cells; antibody 0.41 nM. Here is the method:
as §3

Assay [14] has the same target. The assay is described as follows: flow cytometry, MDA-MB-231 cells; antibody 100.00 nM. Here is the method: as §3
The target is the same in assay [15]. Kind of assay: flow cytometry, MDA-MB-231 cells; antibody 11.11 nM. Here is the method: as §3
Assay [16] has the same target. The assay is described as follows: flow cytometry, MDA-MB-231 cells. Here is the method: as §3
The target is the same in assay [17]. Kind of assay: flow cytometry, MDA-MB-231 cells; antibody 3.70 nM. Here is the method:
as §3

Assay [18] has the same target. The assay is described as follows: cell-based or functional assay.
The target is the same in assay [19]. Kind of assay: flow cytometry, MDA-MB-231 cells; antibody 0.05 nM. The procedure:
as §3

For assay [20] the target is unchanged. The assay is described as follows: flow cytometry, MDA-MB-231 cells; antibody 1.23 nM. Here is the method: as §3
For assay [21] the target is unchanged. The assay is described as follows: flow cytometry, MDA-MB-231 cells; antibody 0.14 nM. The procedure: as §3

T1 sequence (Q15116 25-288): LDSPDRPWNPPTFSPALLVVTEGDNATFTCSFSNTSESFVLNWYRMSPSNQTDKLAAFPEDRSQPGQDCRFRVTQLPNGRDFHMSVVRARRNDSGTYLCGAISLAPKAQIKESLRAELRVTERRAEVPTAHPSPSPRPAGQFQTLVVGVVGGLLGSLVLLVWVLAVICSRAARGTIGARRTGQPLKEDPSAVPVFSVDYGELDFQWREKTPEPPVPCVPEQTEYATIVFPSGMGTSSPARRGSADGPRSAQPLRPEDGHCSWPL
Chain of human PD-1-mFc-biotin (Q15116 other isoform, or with tags, fused parts or gaps limits assumed): as the sequence (Q15116 other isoform, or with tags, fused parts or gaps limits assumed) above

B1: P1D7V04R (bispecific antibody, human IgG1, kappa)
heavy: not shown
light: DIQMTQSPSSMSASVGDRVTFTCRASQDINTYLSWFQQKPGKSPKTLIYRANRLVSGVPSRFSGSGSGQDYTLTISSLQPEDMATYYCLQYDEFPLTFGAGTKLELKRTVAAPSVFIFPPSDEQLKSGTASVVCLLNNFYPREAKVQWKVDNALQSGNSQESVTEQDSKDSTYSLSSTLTLSKADYEKHKVYACEVTHQGLSSPVTKSFNRGEC
notes: Morrison form IgG-scFv
The term EC50 denotes the concentration that produces a half-maximal response. B1: the FACS signal came out at 1280 in [1]; 113 in assay [2]; 24.8 in assay [3]; 400 in [4]; 361 in assay [5]; 467 in assay [7]. In addition, the FACS signal in [8] is 52.4; in assay [11], 289. For the same molecule, the EC50 with human NT5E-Biotin amounted to 0.439 nM; in assay [6], 1.57 nM; with PD-1-mFc [10], 0.089 nM; with human PD-1-mFc-biotin, 1.34 nM. In addition, the OD450 in the assay with PD-1-mFc [9] amounted to 1.66 OD.

B2: MEDI9447 (antibody, V domains shown)
VH: EVQLLESGGGLVQPGGSLRLSCAASGFTFSSYAYSWVRQAPGKGLEWVSAISGSGGRTYYADSVKGRFTISRDNSKNTLYLQMNSLRAEDTAVYYCARLGYGRVDEWGRGTLVTVSS
VL: QSVLTQPPSASGTPGQRVTISCSGSLSNIGRNPVNWYQQLPGTAPKLLIYLDNLRLSGVPDRFSGSKSGTSASLAISGLQSEDEADYYCATWDDSHPGWTFGGGTKLTVLG
Regarding B2, the FACS signal in [12] amounted to 930; in assay [13], 158; in [14], 878; in [15], 829; in assay [17], 698; in [19], 32.6. For the same molecule, the FACS signal in assay [20] was 389; in assay [21], 64.4. The molecule also showed an EC50 in assay [16] of 1.59 nM. The “IC50 (nM), inhibition of enzyme activity of CD73 on U87-MG cell membrane surface” value in assay [18] was 0.119 nM.
